Literature values, collected in US20060234299A1, “Protein scaffolds and uses thereof” (Avidia Research Institute, priority 2004, published 2006).

conditions: commercial drugs

| Substance | Human T½ [h] |
| --- | --- |
| Enbrel | 103 |
| Remicade: TNFa Antibody | 216 |
| Rituxan: CD20 Antibody | 78 |
